Test results: the supplement of paper PMC12764529
± gives the half width of the 95% confidence interval.

Assay: folding stability dG unfold (combined trypsin and chymotrypsin); higher = more stable
Outline: (§1)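 Designed mini-proteins (under 80 residues, no cysteine) in a PA-tagged cDNA display construct were digested with trypsin and chymotrypsin. Each protease was used at 11 concentrations (threefold dilutions) plus a no-protease condition, followed by sequencing. K50 was inferred by Bayesian fitting of sequencing counts, and unfolding free energy was derived against a sequence-predicted unfolded-state K50 and a shared folded-state K50, per protease or combined. Only designs with AlphaFold2 dimer inter-PAE above 15 were kept.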

Question: With “SAGKVKIEVEEVPPNVKKVKVESLEELLEAAKKLPPGAVVEVELEDGSKVTVVLNKDGKVVEVKKEPVPSAG [r5_506_TrROS_Hall]” as the sequence, how does the “folding stability dG unfold” value read?
Answer: The value was 1.58 ± 0.27 kcal/mol.

Question: For “SAGGSAGGSDKVVEFTFKIPSKDITAEDIAKAVKEAFPGVKKIEVTLYPGEGTAKVKVYLEPSSAGGSAGGS [r20_31_TrMRF]”, which “folding stability dG unfold” value is on record?
Answer: The value was 4.29 ± 0.18 kcal/mol.

Question: For “STRTLTVVVEAPTLEEALAAAKALAPPGWKVTVTVERREVVDPETGETRTVLVVTVTIEPAPPPPPAEEKSA [r9_962_TrROS_Hall]”, which “folding stability dG unfold” value is on record?
Answer: Its value is 2.86 ± 0.091 kcal/mol.

Question: Which “folding stability dG unfold” value does the source give for “SAGGSAGGSAGSMLTTTLPNGTPVTREFDIQDVEPKGDVIKVVITNPTGGEVPASTVIGPVNSAGGSAGGSA [r18_163_JUSTAS]” here?
Answer: The value was 0.657 ± 0.081 kcal/mol.

Question: Which “folding stability dG unfold” value does the source give for “SAGGSAKPKIKINIFYPKDGQWYVMIQDPGGEEVMGPWDDIDKIIEAGIPADDVEIEWMPMPPGQFSAGGSA [r15_955_TrROS]” here?
Answer: The value was 1.09 ± 0.05 kcal/mol.

Question: With “SAGGSASIKVTYRFPPDTTVEQAIEDLIAYLEAQTNVKISIPSYTVEREGDYLLVTADILIEPLPESAGGSA [r15_105_TrMRF]” as the sequence, how does the “folding stability dG unfold” value read?
Answer: The value was 4.59 ± 0.073 kcal/mol.

Question: Which “folding stability dG unfold” value does the source give for “SAGGGPAAEVARLLREAGYDVEVEVEVFSREENPPLLPGEPLVVRVRVYATPPTGPRRPLGEFVVPVGSAGG [r13_874_TrMRF]” here?
Answer: Its value is 2.17 ± 0.06 kcal/mol.

Question: With “SMTVSNPRGKTVTVTVTVTVDPNKKSVTVPVTIRTAGEELTFTFTVPKGVNKPVTFSLTVPLPPGSSVISSA [r9_973_JUSTAS]” as the sequence, how does the “folding stability dG unfold” value read?
Answer: The value was 3.63 ± 0.089 kcal/mol.

Question: For “SPNFRISPEIKNAIKRALKENEPGKKVEIRMRYPDGPTIMISIDKPGSINIEVEPDPGKPIMEFEFDIKDSA [r9_132_TrROS]”, which “folding stability dG unfold” value is on record?
Answer: Its value is 0.873 ± 0.16 kcal/mol.

Question: For “SAGGSAGGSAGGKILVITAKIEDIPEIIEAAKKLGIDSVIIDIPETKEKIIITKDSVKLISAGGSAGGSAGG [r7_564_TrMRF]”, which “folding stability dG unfold” value is on record?
Answer: Its value is 1.63 ± 0.14 kcal/mol.

Question: With “SAGGSAGGSAGGSGLSFEIVEEREELLPDGRPRRRIFATLPGGRRLVIDDDGRITIDPDSAGGSAGGSAGGS [r4_111_TrMRF]” as the sequence, how does the “folding stability dG unfold” value read?
Answer: The value was 0.897 ± 0.25 kcal/mol.

Question: For “SAPIVIPAKAGSPENVLKAIKEAKELASKGKKVYLPILTKDGPIFFEVDPKTKTIKIYNPKTGEKKDLSSAG [r14_423_TrMRF]”, which “folding stability dG unfold” value is on record?
Answer: Its value is 1.25 ± 0.16 kcal/mol.

Question: Which “folding stability dG unfold” value does the source give for “SAGLRVVAVARTPDGSLVVVYELPDRLVVLRYTPTAITSVAVFPVPPVPPPPAVPRYYDPVTGRWVDGSAGG [r19_254_TrMRF]” here?
Answer: The value was 3.02 ± 0.061 kcal/mol.

Question: Which “folding stability dG unfold” value does the source give for “SAGGSAGGSASMDTVVEVGPEILSTGLPIEKVTYDPNTGKTYIETPDKLYVIDSDGNITVDASAGGSAGGSA [r18_445_JUSTAS]” here?
Answer: Its value is 1.72 ± 0.057 kcal/mol.

Question: With “SAGGSAPKTVTFTTPKGYPITVTPGDRTVTLTHPDRPLATFDVPPDVPTFTITLPDGDTATITVDDSAGGSA [r2_385_TrMRF]” as the sequence, how does the “folding stability dG unfold” value read?
Answer: The value was -0.446 ± 0.11 kcal/mol.

Question: For “SAGGSAGGKVKFEIPNAKITSVEYDPNPGLLKVEFELPNGLKLTAIFKIDKDKAILAKIEISPESAGGSAGG [r6_718_TrMRF]”, which “folding stability dG unfold” value is on record?
Answer: Its value is 3.23 ± 0.081 kcal/mol.

Question: Which “folding stability dG unfold” value does the source give for “SAGGSAGGSGSMTTTTDPNSDITVSSIGSPSGPPVTATLNPKTGTVTVTVGGTPVTIPLDALSSAGGSAGGS [r12_650_JUSTAS]” here?
Answer: Its value is 0.987 ± 0.045 kcal/mol.

Question: Which “folding stability dG unfold” value does the source give for “SAGGSAGGSAGGPEVTITLPPPEKVKVEIVEIEVEGGKVRIRVRNENGEELTFTVPLEDLSAGGSAGGSAGG [r7_829_TrROS_Hall]” here?
Answer: Its value is 1.51 ± 0.26 kcal/mol.

Question: For “SAGGSAGGSMWIVRIEYENPDNGKTYTIPIFVPPEDAEEIAKEIAEQLPGIKDIKVEIYPLNDSAGGSAGGS [r12_757_TrROS]”, which “folding stability dG unfold” value is on record?
Answer: The value was 2.03 ± 0.16 kcal/mol.

Question: Which “folding stability dG unfold” value does the source give for “SAGGMPVTVTIVVPPGTERELAEELAEKYAKEGADVEFEERPGGLVLTMTLPGGEVVTMEIRDPAQASAGGS [r16_406_JUSTAS]” here?
Answer: Its value is 2.34 ± 0.057 kcal/mol.

Question: For “SAGGSAGGSDYKIEIEVEPMDPEDGYYQVELEIYDPNNGEPKEKIPVHMDSPEDAKDAIKELISAGGSAGGS [r12_26_TrROS]”, which “folding stability dG unfold” value is on record?
Answer: Its value is 0.456 ± 0.084 kcal/mol.

Question: Which “folding stability dG unfold” value does the source give for “DDWVTLPVEIWIPVRNPDGKPLTPEQVKETANSIRNELARNHGIDVEVDVKVEPVGPNGYYRINATVTIRPS [r1_231_TrROS]” here?
Answer: Its value is 2.72 ± 0.14 kcal/mol.

Question: With “SAGGKVTVENDTLTIPFPDGFTVEITLPPNDKTAVITLHTPPNNPLALAAAKAIADSLPDYKVEVRDESAGG [r13_34_TrMRF]” as the sequence, how does the “folding stability dG unfold” value read?
Answer: Its value is 0.704 ± 0.07 kcal/mol.

Question: For “SAGGMTITVRVKAENPEEAIKKVEETVRSLGYRVVELKEVEVRYDEATGEVFVEATVEVEPLPEEEGSAGGS [r16_155_TrMRF]”, which “folding stability dG unfold” value is on record?
Answer: Its value is 4.8 ± 0.12 kcal/mol.

Question: Which “folding stability dG unfold” value does the source give for “SAGSKEALLSDPSFEPVEVEIHLEIEVPGVTPEEAEAIAKELEKEITEELKKKGIKNVKVTVTIRYVERSAG [r5_431_JUSTAS]” here?
Answer: Its value is 2.24 ± 0.071 kcal/mol.

Question: For “SAGGMTVTVKVKPDEYVIVEIENPVLDSTLTYVVPFNSPMTVTLPLPPDYKVKKITVVSPKKVSKELLSAGG [r13_119_JUSTAS]”, which “folding stability dG unfold” value is on record?
Answer: Its value is 1.78 ± 0.059 kcal/mol.

Question: Which “folding stability dG unfold” value does the source give for “SAGSPSIVRTPSLTYDPDPRNPSTPRLRQASVTATNPNGETITFTFTSLEDMDAALNAWIAANPELLSSAGG [r19_123_JUSTAS]” here?
Answer: Its value is 1.38 ± 0.08 kcal/mol.

Question: For “SAENGKWVEVELPIEIWMGNDQLDNFIEEARDIARKHGFEITDIPIKYEPSPDGYRRATIPVKITVPLPSAG [r14_109_TrROS]”, which “folding stability dG unfold” value is on record?
Answer: The value was 1.13 ± 0.14 kcal/mol.

Question: Which “folding stability dG unfold” value does the source give for “SAGGSAGGSMVYKVTVYIPESGETREFVDPGSEEEIKARVKELFPDPNVKVEITPIEASPELLSAGGSAGGS [r12_92_JUSTAS]” here?
Answer: Its value is 1.82 ± 0.045 kcal/mol.

Question: With “SAGGSAGGSAGGKKKKVKKKVTITIKLSAEEVAKLLKDLYPEKNIKIEENEDGSLSVTFTSAGGSAGGSAGG [r7_670_TrROS_Hall]” as the sequence, how does the “folding stability dG unfold” value read?
Answer: The value was 2.26 ± 0.11 kcal/mol.

Question: For “SAGGSAGGSAGGKKPITLTVLVTDPDGYLLQRTTTLTLDEDTNELTATTTVTRIPLEDLSAGGSAGGSAGGS [r10_1225_TrROS_Hall]”, which “folding stability dG unfold” value is on record?
Answer: Its value is 1.6 ± 0.13 kcal/mol.

Assay: folding stability dG unfold from chymotrypsin proteolysis; higher = more stable
Outline: as §1

Question: With “SAGKVKIEVEEVPPNVKKVKVESLEELLEAAKKLPPGAVVEVELEDGSKVTVVLNKDGKVVEVKKEPVPSAG [r5_506_TrROS_Hall]” as the sequence, how does the “folding stability dG unfold” value read?
Answer: Its value is 0.9 ± 0.16 kcal/mol.

Question: For “SAGGSAGGSDKVVEFTFKIPSKDITAEDIAKAVKEAFPGVKKIEVTLYPGEGTAKVKVYLEPSSAGGSAGGS [r20_31_TrMRF]”, which “folding stability dG unfold” value is on record?
Answer: The value was 4.44 ± 0.088 kcal/mol.

Question: With “STRTLTVVVEAPTLEEALAAAKALAPPGWKVTVTVERREVVDPETGETRTVLVVTVTIEPAPPPPPAEEKSA [r9_962_TrROS_Hall]” as the sequence, how does the “folding stability dG unfold” value read?
Answer: Its value is 3.16 ± 0.083 kcal/mol.

Question: With “SAGGSAGGSAGSMLTTTLPNGTPVTREFDIQDVEPKGDVIKVVITNPTGGEVPASTVIGPVNSAGGSAGGSA [r18_163_JUSTAS]” as the sequence, how does the “folding stability dG unfold” value read?
Answer: Its value is 0.757 ± 0.03 kcal/mol.

Question: Which “folding stability dG unfold” value does the source give for “SAGGSAKPKIKINIFYPKDGQWYVMIQDPGGEEVMGPWDDIDKIIEAGIPADDVEIEWMPMPPGQFSAGGSA [r15_955_TrROS]” here?
Answer: The value was 1.15 ± 0.048 kcal/mol.

Question: Which “folding stability dG unfold” value does the source give for “SAGGSASIKVTYRFPPDTTVEQAIEDLIAYLEAQTNVKISIPSYTVEREGDYLLVTADILIEPLPESAGGSA [r15_105_TrMRF]” here?
Answer: Its value is 4.61 ± 0.056 kcal/mol.

Question: With “SAGGGPAAEVARLLREAGYDVEVEVEVFSREENPPLLPGEPLVVRVRVYATPPTGPRRPLGEFVVPVGSAGG [r13_874_TrMRF]” as the sequence, how does the “folding stability dG unfold” value read?
Answer: The value was 2.49 ± 0.029 kcal/mol.

Question: Which “folding stability dG unfold” value does the source give for “SMTVSNPRGKTVTVTVTVTVDPNKKSVTVPVTIRTAGEELTFTFTVPKGVNKPVTFSLTVPLPPGSSVISSA [r9_973_JUSTAS]” here?
Answer: Its value is 4.02 ± 0.059 kcal/mol.

Question: Which “folding stability dG unfold” value does the source give for “SPNFRISPEIKNAIKRALKENEPGKKVEIRMRYPDGPTIMISIDKPGSINIEVEPDPGKPIMEFEFDIKDSA [r9_132_TrROS]” here?
Answer: The value was 0.825 ± 0.069 kcal/mol.

Question: With “SAGGSAGGSAGGKILVITAKIEDIPEIIEAAKKLGIDSVIIDIPETKEKIIITKDSVKLISAGGSAGGSAGG [r7_564_TrMRF]” as the sequence, how does the “folding stability dG unfold” value read?
Answer: Its value is 1.76 ± 0.089 kcal/mol.

Question: Which “folding stability dG unfold” value does the source give for “SAGGSAGGSAGGSGLSFEIVEEREELLPDGRPRRRIFATLPGGRRLVIDDDGRITIDPDSAGGSAGGSAGGS [r4_111_TrMRF]” here?
Answer: The value was 0.968 ± 0.15 kcal/mol.

Question: With “SAPIVIPAKAGSPENVLKAIKEAKELASKGKKVYLPILTKDGPIFFEVDPKTKTIKIYNPKTGEKKDLSSAG [r14_423_TrMRF]” as the sequence, how does the “folding stability dG unfold” value read?
Answer: Its value is 1.04 ± 0.07 kcal/mol.

Question: Which “folding stability dG unfold” value does the source give for “SAGLRVVAVARTPDGSLVVVYELPDRLVVLRYTPTAITSVAVFPVPPVPPPPAVPRYYDPVTGRWVDGSAGG [r19_254_TrMRF]” here?
Answer: Its value is 3.641 ± 0.026 kcal/mol.

Question: For “SAGGSAGGSASMDTVVEVGPEILSTGLPIEKVTYDPNTGKTYIETPDKLYVIDSDGNITVDASAGGSAGGSA [r18_445_JUSTAS]”, which “folding stability dG unfold” value is on record?
Answer: The value was 1.69 ± 0.025 kcal/mol.

Question: For “SAGGSAPKTVTFTTPKGYPITVTPGDRTVTLTHPDRPLATFDVPPDVPTFTITLPDGDTATITVDDSAGGSA [r2_385_TrMRF]”, which “folding stability dG unfold” value is on record?
Answer: Its value is -0.408 ± 0.19 kcal/mol.
